Among the data in patent US20240141072A1 (published 2024) are Kd values, retold here.

T1: biotinylated human DLL3 protein expressed as a human IgG1 fusion protein (human, UniProt Q9NYJ7 27-492, limits assumed, biotinylated)
T1 sequence: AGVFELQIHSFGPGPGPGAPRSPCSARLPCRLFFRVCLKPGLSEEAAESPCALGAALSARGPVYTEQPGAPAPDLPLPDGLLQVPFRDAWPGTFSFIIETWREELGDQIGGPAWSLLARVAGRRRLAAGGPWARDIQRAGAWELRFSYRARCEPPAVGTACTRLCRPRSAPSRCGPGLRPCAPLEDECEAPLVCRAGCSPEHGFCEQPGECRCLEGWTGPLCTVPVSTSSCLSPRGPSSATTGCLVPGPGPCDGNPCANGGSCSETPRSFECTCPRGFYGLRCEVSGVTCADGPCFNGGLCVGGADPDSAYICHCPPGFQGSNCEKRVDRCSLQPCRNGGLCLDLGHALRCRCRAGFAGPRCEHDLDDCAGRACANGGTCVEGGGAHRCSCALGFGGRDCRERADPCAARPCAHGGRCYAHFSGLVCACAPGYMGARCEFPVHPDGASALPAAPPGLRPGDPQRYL

B1: 4E010 anti-DLL3 trispecific protein (other)
chain: EVQLVESGGGLVQPGGSLTLSCAASGSSVKFLSMAWYRQAPGKKRELVAGISADGSTDYIDSVKGRFTISRDNAKNSVYLQMNSLRAEDTAVYYCYAYRWRTRYTYWGQGTLVTVSS
notes: not shown: linker 1808, anti-albumin sdAb, linker 1808, anti-CD3 fragment, His6 1819
B2: 4G03 anti-DLL3 trispecific protein (other)
chain: EVQLVESGGGLVQPGGSLTLSCAASGSSVKFLSMAWYRQAPGKKRELVAGISADGSTDYIHSVKGRFTISRDNAKNSVYLQMNSLRAEDTAVYYCYAYRWTRRYTYWGQGTLVTVSS
notes: as for B1
B3: 4F04 anti-DLL3 trispecific protein (other)
chain: EVQLVESGGGLVQPGGSLTLSCAASRSSVSFLSMAWYRQAPGKKRELVAGISTDGSTDYIDSVKGRFTISRDNAKNSVYLQMNSLRAEDTAVYYCYAYRWLTRYTYWGQGTLVTVSS
notes: as for B1
B4: 4F09 anti-DLL3 trispecific protein (other)
chain: EVQLVESGGGLVQPGGSLTLSCAASGSRVSFLSMAWYRQAPGKKRELVAGISADGSTDYIESVKGRFTISRDNAKNSVYLQMNSLRAEDTAVYYCYAYRWTTRYTYWGQGTLVTVSS
notes: as for B1
B5: 4F08 anti-DLL3 trispecific protein (other)
chain: EVQLVESGGGLVQPGGSLTLSCAASGSKVSFLSMAWYRQAPGKKRELVAGISADGSTAYIDSVKGRFTISRDNAKNSVYLQMNSLRAEDTAVYYCYAYRWRTRYTYWGQGTLVTVSS
notes: as for B1
B6: 4G02 anti-DLL3 trispecific protein (other)
chain: EVQLVESGGGLVQPGGSLTLSCAASGSSVKFLSMAWYRQAPGKKRELVAGISRDGSTDYIDSVKGRFTISRDNAKNSVYLQMNSLRAEDTAVYYCYAYRWTTRHTYWGQGTLVTVSS
notes: as for B1
B7: 4F010 anti-DLL3 trispecific protein (other)
chain: EVQLVESGGGLVQPGGSLTLSCAASGSSVSFLSMAWYRQAPGKKRELVAGISIDGSTDYIKSVKGRFTISRDNAKNSVYLQMNSLRAEDTAVYYCYAYRWTTRYRYWGQGTLVTVSS
notes: as for B1
B8: 4F03 anti-DLL3 trispecific protein (other)
chain: EVQLVESGGGLVQPGGSLTLSCAASGSSVQFLSMAWYRQAPGKKRELVAGISYDGSTDYIDSVKGRFTISRDNAKNSVYLQMNSLRAEDTAVYYCYAYRWRTRYTYWGQGTLVTVSS
notes: as for B1
B9: 4G05 anti-DLL3 trispecific protein (other)
chain: EVQLVESGGGLVQPGGSLTLSCAASGSSVSILSMAWYRQAPGKKRELVAGISADGSTIYIDSVKGRFTISRDNAKNSVYLQMNSLRAEDTAVYYCYAYRWHTRYTYWGQGTLVTVSS
notes: as for B1
B10: 4E011 anti-DLL3 trispecific protein (other)
chain: EVQLVESGGGLVQPGGSLTLSCAASGSSVSFLSMAWYRQAPGKKRELVAGISATGSTDYIDSVKGRFTISRDNAKNSVYLQMNSLRAEDTAVYYCYAYRWSTRYTYWGQGTLVTVSS
notes: as for B1
B11: 4F02 anti-DLL3 trispecific protein (other)
chain: EVQLVESGGGLVQPGGSLTLSCAASGSTVSFLSMAWYRQAPGKKRELVAGISHDGSTDYIDSVKGRFTISRDNAKNSVYLQMNSLRAEDTAVYYCYAYRWTTRYTYWGQGTLVTVSS
notes: as for B1
B12: 4F011 anti-DLL3 trispecific protein (other)
chain: EVQLVESGGGLVQPGGSLTLSCAASGSKVSFLSMAWYRQAPGKKRELVAGISADGSKDYIDSVKGRFTISRDNAKNSVYLQMNSLRAEDTAVYYCYAYRWTTRYTYWGQGTLVTVSS
notes: as for B1
B13: 4G01 anti-DLL3 trispecific protein (other)
chain: EVQLVESGGGLVQPGGSLTLSCAASGSSVRFLSMAWYRQAPGKKRELVAGISADGSTVYIDSVKGRFTISRDNAKNSVYLQMNSLRAEDTAVYYCYAYRWPTRYTYWGQGTLVTVSS
notes: as for B1

The target in this test is T1, biotinylated human DLL3 protein …. The test can be described thus: Octet BLI, single 50 nM. A digest of the protocol: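 Analyte: trispecific anti-DLL3 proteins in conditioned medium, concentration known; ligand: captured DLL3 fusion; output: binding affinity.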
In turn, B1 showed a Kd of 9 nM.

Take B2: binding was characterised by a dissociation constant (Kd) of 20 nM. This Kd is about 2.2-fold higher than that of the molecule before.

Molecule B3 showed a Kd of 9.8 nM.

As for B4, the Kd was determined as 8.8 nM. This Kd and that of the molecule before are within 1.5-fold of each other.

Turning to B5, binding was put at a Kd of 9 nM.

For B6, the Kd stood at 15 nM.

In the case of B7, the affinity, expressed as Kd, was 5.8 nM.

B8 gave a Kd of 12 nM. Against the preceding molecule, the Kd is about 2.1-fold higher.

B9 came in with a Kd of 9.7 nM. The Kd values of the last two molecules are within 1.5-fold of each other.

As to B10, the affinity, expressed as Kd, was 13 nM. This Kd and that of the molecule before are within 1.5-fold of each other.

Take B11: the affinity, expressed as Kd, was 15 nM.

In the case of B12, binding was characterised by a dissociation constant (Kd) of 8.2 nM.

B13 registered an equilibrium dissociation constant (Kd) of 3.6 nM.

The Kd is a measure of binding affinity in units of concentration. Low readings indicate higher affinity, high ones lower affinity.
